Measured values from PMC2814896.

B1: OCT2 (hOCT2) (Homo sapiens) (protein)
chain: MPTTVDDVLEHGGEFHFFQKQMFFLLALLSATFAPIYVGIVFLGFTPDHRCRSPGVAELSLRCGWSPAEELNYTVPGPGPAGEASPRQCRRYEVDWNQSTFDCVDPLASLDTNRSRLPLGPCRDGWVYETPGSSIVTEFNLVCANSWMLDLFQSSVNVGFFIGSMSIGYIADRFGRKLCLLTTVLINAAAGVLMAISPTYTWMLIFRLIQGLVSKAGWLIGYILITEFVGRRYRRTVGIFYQVAYTVGLLVLAGVAYALPHWRWLQFTVSLPNFFFLLYYWCIPESPRWLISQNKNAEAMRIIKHIAKKNGKSLPASLQRLRLEEETGKKLNPSFLDLVRTPQIRKHTMILMYNWFTSSVLYQGLIMHMGLAGDNIYLDFFYSALVEFPAAFMIILTIDRIGRRYPWAASNMVAGAACLASVFIPGDLQWLKIIISCLGRMGITMAYEIVCLVNAELYPTFIRNLGVHICSSMCDIGGIITPFLVYRLTNIWLELPLMVFGVLGLVAGGLVLLLPETKGKALPETIEEAENMQRPRKNKEKMIYLQVQKLDIPLN
B2: OCT1 (hOCT1) (Homo sapiens) (protein)
chain: MPTVDDILEQVGESGWFQKQAFLILCLLSAAFAPICVGIVFLGFTPDHHCQSPGVAELSQRCGWSPAEELNYTVPGLGPAGEAFLGQCRRYEVDWNQSALSCVDPLASLATNRSHLPLGPCQDGWVYDTPGSSIVTEFNLVCADSWKLDLFQSCLNAGFLFGSLGVGYFADRFGRKLCLLGTVLVNAVSGVLMAFSPNYMSMLLFRLLQGLVSKGNWMAGYTLITEFVGSGSRRTVAIMYQMAFTVGLVALTGLAYALPHWRWLQLAVSLPTFLFLLYYWCVPESPRWLLSQKRNTEAIKIMDHIAQKNGKLPPADLKMLSLEEDVTEKLSPSFADLFRTPRLRKRTFILMYLWFTDSVLYQGLILHMGATSGNLYLDFLYSALVEIPGAFIALITIDRVGRIYPMAMSNLLAGAACLVMIFISPDLHWLNIIIMCVGRMGITIAIQMICLVNAELYPTFVRNLGVMVCSSLCDIGGIITPFIVFRLREVWQALPLILFAVLGLLAAGVTLLLPETKGVALPETMKDAENLGRKAKPKENTIYLKVQTSEPSGT

What was measured:
[1] = substrate: N=C(N)NCCCCN; assay: radiolabeled uptake in hOCT2-HEK293 vs wild-type HEK293 cells; assay type: cell-based, Homo sapiens
[2] = substrate: N=C(N)NCCCCN; assay: saturable uptake in hOCT1-HEK cells; assay type: cell-based, Homo sapiens

| Protein | Km [1] | Km [2] |
| --- | --- | --- |
| B1 | 2 mM |  |
| B2 |  | 30 mM |
